In US20210130420A1, “RECOMBINANT BINDING PROTEINS TARGETING HER2 AND SERUM ALBUMIN, AND THEIR USES” (Molecular Partners AG, priority 2016, published 2021):
Several values for one entry are separate records, joined by “and”; a condition that tells them apart may be missing. Equal entries are not always repeated.

Tests used:
[1] = Pharmacokinetic analysis in cynomolgus monkey; type: in vivo
[2] = Pharmacokinetic comparison of Protein #21 with Protein #33; type: in vivo; details: variant lacking the C-terminal serum albumin binding domain
Description: Many options are known in the art for pharmacokinetic engineering including PEGylation, polypeptide extension, Fc-fusion, serum albumin-fusion, and binding to serum albumin, amongst others (Kontermann, R (Ed.) “Therapeutic proteins: strategies to modulate their plasma half-lives”, Wiley-VCH Verlag GmbH, 2012, ISBN 978-3-527-32849-9). Starting from e.g. the combination of designed ankyrin repeat domains with binding specificity for HER2 comprising SEQ ID NOs: 16 and 17, there are hundreds of potential drug candidate variants (choice of pharmacokinetic modification engineering, choice of polypeptide linker (e.g. SEQ ID NOs: 2 to 9 amongst many others), amongst other aspects). […] Results of the effect of the choice of the polypeptide linker are shown e.g. in Example 10.
For the studies in this example Protein #21-His, Protein #24-His, Protein #28-His, Protein #29-His, and Protein #30-His were prepared according to Example 1. Protein #28-His was additionally PEGylated using a 40 kDa PEG moiety (NOF Sunbright GL2-400MA) by maleimid coupling of the PEG-moiety onto the free C-terminal cysteine of Protein #28-His, followed by purification to homogeneity using standard purification methods, procedures well known to the person skilled in the art. Pharmacokinetic analyses in mouse or cynomolgus monkey were performed as described in Examples 8 and 9.

B1: Protein #21: SEQ ID NO: 21; HER2 binding domains (SEQ ID NOs: 16, 17) flanked by two serum albumin binding domains (SEQ ID NO: 14), SEQ ID NO: 9 linkers (protein)
chain: GSDLGKKLLEAARAGQDDEVRELLKAGADVNAKDYFSHTPLHLAARNGHLKIVEVLLKAGADVNAKDFAGKTPLHLAANEGHLEIVEVLLKAGADVNAQDIFGKTPADIAADAGHEDIAEVLQKAAGSPTPTPTTPTPTPTTPTPTPTGSDLGIKLLFAAAKGQDDEVRELLKAGADVNAKDFQGVTPLHIAAQSGHLEIVEVLLKAGADVNAKDVTGDTPLHLAAQHGHLEIVEVLLKAGADVNAQDERGWTPADLAADWGHEDIAEVLQKAAGSPTPTPTTPTPTPTTPTPTPTGSDLGKKLLEAARAGQDDEVRELLKAGADVNAKDEYGLTPLYLATAHGHLEIVEVLLKAGADVNAVDAIGFTPLHLAAFIGHLEIAEVLLKAGADVNAQDKFGKTPADIAAGAGNEDIAEVLQKAAGSPTPTPTTPTPTPTTPTPTPTGSDLGKKLLEAARAGQDDEVRELLKAGADVNAKDYFSHTPLHLAARNGHLKIVEVLLKAGADVNAKDFAGKTPLHLAANEGHLEIVEVLLKAGADVNAQDIFGKTPADIAADAGHEDIAEVLQKAA
modifications: Protein comprising four designed ankyrin repeat domains
dose dependence of the terminal half-life ([1]; 1 mg/kg, 10 mg/kg and 100 mg/kg): dose dependent increase
pharmacokinetic properties compared to PEGylated Protein #28 ([1]; 5 mg/kg doses): markedly improved pharmacokinetic properties
terminal half-life ([1]; 100 mg/kg): 109.5 h and 130.6 h
pharmacokinetic properties compared to Protein #33 [2]: markedly improved pharmacokinetic properties, in particular a longer terminal half-life
